Reference: the supplement of paper PMC10567573

B1: C2orf65 (parent)
chain: QLDWDELETNQQHFHALCHSLLVS

Variants of: B1
Experiment: protein stability index of a GFP-peptide fusion (GPS, HEK-293T) (PSI 1-6); higher = more stable
Conditions: c terminus: a fixed tail appended
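Also: lentivirally expressed fusions sorted by FACS into six bins by GFP to DsRed ratio, PSI derived from sequencing read proportions per bin multiplied by bin number.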

Variant	protein stability index
QLDWDELETNQQHFHNLCHSLLVS [A16N]	1.95
QLDWDELETNQQHFHQLCHSLLVS [A16Q]	2.27
QLDWDELETNQQHFHILCHSLLVS [A16I]	2.2
QLDWDELETNQQHFHRLCHSLLVS [A16R]	2.22
QLDWDELETNQQHFHSLCHSLLVS [A16S]	2.33
QLDWDELETNQQHFHKLCHSLLVS [A16K]	2.91
QLDWDELETNQQHFHPLCHSLLVS [A16P]	2.43
QLDWDELETNQQHFHTLCHSLLVS [A16T]	1.57
QLDWDELETNQQHFHELCHSLLVS [A16E]	3.07
QLDWDELETNQQHFHFLCHSLLVS [A16F]	2.44
QLDWDELETNQQHFHWLCHSLLVS [A16W]	1.53
QLDWDELETNQQHFHMLCHSLLVS [A16M]	1.95
QLDWDELETNQQHFHLLCHSLLVS [A16L]	1.63
QLDWDELETNQQHFHDLCHSLLVS [A16D]	2.58
QLDWDELETNQQHFHCLCHSLLVS [A16C]	2.31
QLDWDELETNQQHFHVLCHSLLVS [A16V]	1.86
QLDWDELETNQQHFHHLCHSLLVS [A16H]	2.35
QLDWDELETNQQHFHGLCHSLLVS [A16G]	2.41
QLDWDELETNQQHFHYLCHSLLVS [A16Y]	3.02
QLDWDELETNQQHFHAMCHSLLVS [L17M]	2.38
QLDWDELETNQQHFHAHCHSLLVS [L17H]	2.6
QLDWDELETNQQHFHADCHSLLVS [L17D]	4.07
QLDWDELETNQQHFHAECHSLLVS [L17E]	3.69
QLDWDELETNQQHFHASCHSLLVS [L17S]	2.58

Variant	protein stability index
QLDWDELETNQQHFHATCHSLLVS [L17T]	3.57
QLDWDELETNQQHFHAKCHSLLVS [L17K]	2.69
QLDWDELETNQQHFHAFCHSLLVS [L17F]	1.9
QLDWDELETNQQHFHAACHSLLVS [L17A]	2.75
QLDWDELETNQQHFHAICHSLLVS [L17I]	2.14
QLDWDELETNQQHFHAYCHSLLVS [L17Y]	2.05
QLDWDELETNQQHFHARCHSLLVS [L17R]	2.68
QLDWDELETNQQHFHAGCHSLLVS [L17G]	2.43
QLDWDELETNQQHFHANCHSLLVS [L17N]	3.12
QLDWDELETNQQHFHACCHSLLVS [L17C]	2.58
QLDWDELETNQQHFHAPCHSLLVS [L17P]	3.92
QLDWDELETNQQHFHAWCHSLLVS [L17W]	2.21
QLDWDELETNQQHFHAVCHSLLVS [L17V]	1.74
QLDWDELETNQQHFHAQCHSLLVS [L17Q]	3.02
QLDWDELETNQQHFYALCHSLLVS [H15Y]	1.82
QLDWDELETNQQHFWALCHSLLVS [H15W]	1.74
QLDWDELETNQQHFHALCHALLVS [S20A]	1.79
QLDWDELETNQQHFHALCHFLLVS [S20F]	1.43
QLDWDELETNQQHFHALCHCLLVS [S20C]	1.5
QLDWDELETNQQHFHALCHTLLVS [S20T]	1.95
QLDWDELETNQQHFHALCHQLLVS [S20Q]	2.03
QLDWDELETNQQHFHALCHGLLVS [S20G]	2.21
QLDWDELETNQQHFHALCHKLLVS [S20K]	2.04
QLDWDELETNQQHFHALCHNLLVS [S20N]	2.61

Variant	protein stability index
QLDWDELETNQQHFHALCHHLLVS [S20H]	2.57
QLDWDELETNQQHFHALCHELLVS [S20E]	1.93
QLDWDELETNQQHFHALCHRLLVS [S20R]	1.91
QLDWDELETNQQHFHALCHMLLVS [S20M]	2.27
QLDWDELETNQQHFHALCHDLLVS [S20D]	2.98
QLDWDELETNQQHFHALCHLLLVS [S20L]	2.19
QLDWDELETNQQHFHALCHPLLVS [S20P]	2.33
QLDWDELETNQQHFHALCHILLVS [S20I]	2.13
QLDWDELETNQQHFHALAHSLLVS [C18A]	2.11
QLDWDELETNQQHFHALMHSLLVS [C18M]	2.11
QLDWDELETNQQHFHALIHSLLVS [C18I]	1.66
QLDWDELETNQQHFHALLHSLLVS [C18L]	1.35
QLDWDELETNQQHFHALNHSLLVS [C18N]	2.96
QLDWDELETNQQHFHALEHSLLVS [C18E]	3.64
QLDWDELETNQQHFHALDHSLLVS [C18D]	3.62
QLDWDELETNQQHFHALRHSLLVS [C18R]	2.48
QLDWDELETNQQHFHALPHSLLVS [C18P]	2.99
QLDWDELETNQQHFHALGHSLLVS [C18G]	2.2
QLDWDELETNQQHFHALSHSLLVS [C18S]	2.88
QLDWDELETNQQHFHALQHSLLVS [C18Q]	2.76
QLDWDELETNQQHFHALYHSLLVS [C18Y]	2.36
QLDWDELETNQQHFHALWHSLLVS [C18W]	2.14
QLDWDELETNQQHFHALHHSLLVS [C18H]	2.65
QLDWDELETNQQHFHALVHSLLVS [C18V]	2.21

Variant	protein stability index
QLDWDELETNQQHFHALFHSLLVS [C18F]	2.27
QLDWDELETNQQHFHALKHSLLVS [C18K]	3.2
QLDWDELETNQQHFHALTHSLLVS [C18T]	2.25
QLDWDELETNQQHFHALCRSLLVS [H19R]	1.94
QLDWDELETNQQHFHALCLSLLVS [H19L]	1.04
QLDWDELETNQQHFHALCCSLLVS [H19C]	2.21
QLDWDELETNQQHFHALCDSLLVS [H19D]	2.94
QLDWDELETNQQHFHALCVSLLVS [H19V]	1.96
QLDWDELETNQQHFHALCQSLLVS [H19Q]	2.67
QLDWDELETNQQHFHALCNSLLVS [H19N]	2.17
QLDWDELETNQQHFHALCPSLLVS [H19P]	2.65
QLDWDELETNQQHFHALCMSLLVS [H19M]	1.66
QLDWDELETNQQHFHALCSSLLVS [H19S]	2.07
QLDWDELETNQQHFHALCGSLLVS [H19G]	2.17
QLDWDELETNQQHFHALCWSLLVS [H19W]	1.04
QLDWDELETNQQHFHALCASLLVS [H19A]	1.88
QLDWDELETNQQHFHALCFSLLVS [H19F]	1.69
QLDWDELETNQQHFHALCESLLVS [H19E]	2.93
QLDWDELETNQQHFHALCISLLVS [H19I]	1.79
QLDWDELETNQQHFHALCKSLLVS [H19K]	2.15
QLDWDELETNQQHFHALCYSLLVS [H19Y]	1.94
QLDWDELETNQQHFHALCTSLLVS [H19T]	2.02
